As a reminder, the Kd is the equilibrium constant for the complex coming apart. High values mean weaker binding, low ones tighter binding.

What all share (experiment): EMSA
In general terms: Mobility shift assays separate free from complexed probe on a gel.

One data set concerns the target T1, BcAlkD (Bacillus cereus) (UniProt Q2PAD8).
T1 sequence: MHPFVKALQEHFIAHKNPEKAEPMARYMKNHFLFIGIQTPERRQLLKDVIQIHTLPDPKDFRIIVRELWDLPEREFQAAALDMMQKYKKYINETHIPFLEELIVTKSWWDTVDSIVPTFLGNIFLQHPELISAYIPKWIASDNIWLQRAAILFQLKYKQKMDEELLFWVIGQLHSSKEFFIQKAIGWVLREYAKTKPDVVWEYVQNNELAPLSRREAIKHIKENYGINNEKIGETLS
The note with it: EMSA: 100 pM 32P-DNA, 0-50 uM protein, 20 mM Tris-HCl pH 7.5, 100 mM NaCl, 5% glycerol, 2 mM DTT, 0.1 mM EDTA, 0.1 mg/mL BSA, 20 C, 30 min; 5% native gel.

Data set [1] deals with T2, SmAlkD2 (Streptococcus mutans Clarke (ATCC 25175)) (UniProt A0A0M3KL00).
T2 sequence: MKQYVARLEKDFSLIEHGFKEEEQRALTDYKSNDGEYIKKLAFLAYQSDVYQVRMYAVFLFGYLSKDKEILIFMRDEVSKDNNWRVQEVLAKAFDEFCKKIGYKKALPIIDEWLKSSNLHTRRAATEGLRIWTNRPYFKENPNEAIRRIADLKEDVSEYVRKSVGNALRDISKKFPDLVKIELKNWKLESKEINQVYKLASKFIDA
Conditions: EMSA: 100 pM 32P-DNA, 0-50 uM protein, 20 mM Tris-HCl pH 7.5, 100 mM NaCl, 5% glycerol, 2 mM DTT, 0.1 mM EDTA, 0.1 mg/mL BSA, 20 C, 30 min, 5% native gel.

Data set [2] deals with T3, BcAlkD-K29A K29A (Bacillus cereus) (UniProt Q2PAD8).
T3 sequence: T1 sequence with K29A
Conditions: N13 of strand 1 = tetrahydrofuran (THF) abasic site mimetic; EMSA: 100 pM 32P-DNA, 0-50 uM protein, 20 mM Tris-HCl pH 7.5, 100 mM NaCl, 5% glycerol, 2 mM DTT, 0.1 mM EDTA, 0.1 mg/mL BSA, 20 C, 30 min; 5% native gel.

Where a chain is given by its changes, count along the chain named. Where only a bound is given, the exact number is not on record here.

Take “GACCACTACACCGATTCCTTACAAC (double strand) [G•C-DNA 25-mer]”: the Kd with BcAlkD (Bacillus cereus) amounted to 19 µM; in data set [1], 67 µM. On to “GACCACTACACCNATTCCTTACAAC / GTTGTAAGGAATCGGTGTAGTGGTC [THF•C-DNA 25-mer]”, for which the binding signal (fold lower affinity than WT) in data set [2] was over 10000. Also, the Kd in data set [1] (N13 of strand 1 = tetrahydrofuran (THF) abasic site mimetic) turned out to be 3.4 µM. Regarding “GACCACTACACCGATTCCTTACAAC / GTTGTAAGGAATTGGTGTAGTGGTC [G•T-DNA 25-mer]”, the Kd in data set [1] (G13•T13 mismatch) is 52 µM. In other words, the double-digit micromolar range.

The values above are taken from PMC4433238.
